Measurements taken from patent US20220185908A1.
Like-named read-outs stand apart in the source and are kept apart here.

Key:
[1] = target: CD38 on cells (Raji, Daudi, REH, CD38-transfected HEK293) (human) (UniProt P28907); assay: flow cytometry, Raji cells expressing CD19 and CD38
[2] = target: CD38 on cells (Raji, Daudi, REH, CD38-transfected HEK293) (human) (UniProt P28907); assay: as above; remark: listed apart in the source
[3] = target: CD38 on cells (Raji, Daudi, REH, CD38-transfected HEK293) (human) (UniProt P28907); assay: flow cytometry, Raji cells; top asymptote fixed at about the maximum response of Darzalex

- EC50 [1]: 1.27 nM
- EC50 [2]: 0.195 mg/L
- Max MFI [2]: 4.02e+06 MFI
- Adjusted EC50 [3]: 1.27 nM
Substance: Darzalex ® (CD38 control) (antibody)
